Substitutions are numbered along the chain they refer to.
B1: ADI-14551 (antibody, V domains shown)
VH: QVQLQESGPGLVKPSETLSLTCSVSGGSIKRGAYFWTWIRQRPGKGLEWIGSMHDSGDYYNPSLKTRVTILGDTTKNHFTLKLTSVTVADTALYYCARGRGYSYGWRFFDNWGQGTLVTVSS
VL: NFMLTQPPSVSVSPGHSTRITCSGDALPKQYAYWYQQKPGQAPVLIMSKDSERPSGIPERFTGSSSGTTVTLTISGVQAEDEADYYCQSGDTSGSYVVFGGGTKVTVL
notes: IgG
B2: ADI-14536 (antibody, V domains shown)
VH: QVQLVQSGGGVVQPGRSLRLSCAASGFSFSSYGMHWVRQAPGKGLEWVAAIFYHEIKDYYADSVNGRFSISRDNSKNTLYLEMYSLKVEDTAVYYCARDSGTLTGLPHDAFDIWGQGTTVTVSS
VL: DIQMTQSPSTLSASLGGRVTITCRASQSVTNRLAWYQHKPGKAPNLLIYKASTLEIGVPSRFSGSGSGTEFTLTISSLQPDDFATYYCQQYSSYSWTFGQGTKVEIK
notes: IgG; also called Antibody Number 96
B3: ADI-14530 (antibody, V domains shown)
VH: QVQLVQSGAEVKKPGSSVKVSCKVVGGSFSNYGIGWVRQAPGQGPEWMGGIIPAFKTAKYAKKFQDRVTITADESSSTAYMEVRGLRPDDTALYYCARPEGDFGDLKWVRSPFDYWGQGTLVTVSS
VL: ETTLTQSPATLSVSPGERVTLSCRASQDVSINLAWYQQKPGQAPRLLIYGASTRATDVPARFSGSGSGTDFTLTISSLQSEDFAFYYCQEYNDWPPQLTFGPGTKVEIK
notes: IgG; also called Antibody Number 90
B4: ADI-14529 (antibody, V domains shown)
VH: EVQLVESGGGLVKPGGSLRLSCAASGFIFRNAWMSWVRQAPGKGLEWVGRIKRTSEGGSVDYATPVQGRFSISRDDSRNTLYLQMNSLETDDTAVYYCSTGPPYSYFDSSGYSVVDYWGQGTLVTVSS
VL: QSVVTQPPSVSGTPGQRVTISCTGSSSNIGTPFDVHWYQQIPETAPKLIISGGFSRPSGVPDRFSGSQSGTSASLAISGLRSEDEGDYYCAAWDDSLSGPVFGGGTKLTVL
notes: IgG; also called Antibody Number 89
B5: ADI-14532 (antibody, V domains shown)
VH: B4 VH with N79K, Q120L
VL: SYELTQPPSASGTPGQRVTISCSASSSNIGDNYFYWYQQLPGKAPTLLMYGSDQRSSGVPDRFSGSQSGTSASLAISGLRSEDEADYYCAAWDDSLSGPVFGGGTQLTVL
notes: IgG; also called Antibody Number 92
B6: ADI-14537 (antibody, V domains shown)
VH: B4 VH with N79K, Q120L
VL: B5 VL with S1Q, Y2P, E3V, Q106K
notes: IgG; also called Antibody Number 97
B7: ADI-14534 (antibody, V domains shown)
VH: EVQLVESGGGVVQPGRSLRLSCAVSGFTFSNFGMHWVRQAPGKGLEWVAAISYDGRKRFQADSVKGRFTISRDNLKNTLNLQMNSLKTEDTAVYYCAKSSRLLDWLYNMDFWGQGTTVTVSS
VL: SYVLTQPPSVSVAPGKTARITCGGNILGSSSVHWFQQKAGQAPVLVIYYDSDRPSGIPERFSGSHSGDTATLTISRVEVGDEADYYCQVWDNSNSQGVFGGGTQLTVL
notes: IgG; also called Antibody Number 94
B8: ADI-14538 (antibody, V domains shown)
VH: B7 VH with R58T, T69I, L102F
VL: B7 VL with V3E, V12E, R19T, N25I, S29T, A39S, N94H
notes: IgG; also called Antibody Number 98
B9: ADI-14547 (antibody, V domains shown)
VH: EVQLLESGPVLVKPTETLTLTCTVSGFSLANPDVAVAWIRQPPGKALEWLAHIFSGDETSYTTSLQNRLTISKDTSKSQVVLIMTKMDPRDTGTYFCARVLTTWHGPDYWGQGTTVTVSS
VL: ETTLTQSPLSLPVTLGQPASISCRSDQSLVYHNGNTYVSWFHQRPGQSPRRLIYKVSIRDSGVPDRFSGSGSGTDFALKISRVEAEDLGVYYCMQGSHWPHTFGQGTKVDIK
notes: IgG; also called Antibody Number 107
B10: ADI-14535 (antibody, V domains shown)
VH: QVQLQQWGPGLVKPSQTLSLTCSVSGASVKIGSNFWTWIRQRPGKGLEWIGAIHDTGTTYYNPSLEPQVIISTDTSQNQFSLRLTSVTAADTAVYYCARGRGYTYGWRYFDYWGQGTLVTVSS
VL: SYVLTQPPSVSVSPGQTARITCSGDALPKQYAFWYQHKAGQAPVLVIKKDTERPSGIPERFSGSISGTTATLIISGVQAEDEADYYCQSSDSSGNVVLFGGGTQLTVL
notes: IgG; also called Antibody Number 95
B11: ADI-14546 (antibody, V domains shown)
VH: QVQLVQSGAEVKKPGSSVKVSCTASGGSFSTNSIAWLRQTPREGLEWMGGIIPVFGAAKYAQKFQGRVTISADASTTTAYLELHNLRSEDTAVYYCARGISPRTNSDWNHNYFYYYMDVWGKGTTVTVSS
VL: ETTLTQSPGTLSLSPGERATLSCRASQSIFTIYLAWYQQKPGQAPRLLIYSASNRATGIPDRFSGSGSGTDFTLTISSLEPEDFAVYYCHHYGTSPHTFGQGTRLEIK
notes: IgG
B12: ADI-14539 (antibody, V domains shown)
VH: QVQLVESGGGVVQPGRSLRLSCAASGFAFRVYDIHWVRQAPGKGLEWVAVAWSDGRDEFYADSVKGRITISRDNSKNTVYLQMSSLRVADTAVYYCARDSGTLTGLPHDAFDVWGQGTTVTVSS
VL: DIQLTQSPSTLSASVGDRVTITCRASQSITTRLAWYQQKLGKAPKLLVYKASTLEIGVPSRFSGRGSGTEFTLTISSLQPDDFATYYCHHYNSYSWTFGQGTKVDIK
notes: IgG; also called Antibody Number 99
B13: ADI-14549 (antibody, V domains shown)
VH: EVQLVESGPALVKPTQTLTLTCTFSGFSLSSRRMCVSWIRQPPGKALEWLARIDWDDDKSYSTSLKTRLTIAKDTSKNQVVLTMTNMGPADTATYYCARTPIYDSSGYYLYYFDSWGQGTLVTVSS
VL: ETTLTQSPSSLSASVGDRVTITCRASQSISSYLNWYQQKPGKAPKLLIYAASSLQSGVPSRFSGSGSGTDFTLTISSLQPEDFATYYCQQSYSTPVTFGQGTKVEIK
notes: IgG
B14: ADI-14526 (antibody, V domains shown)
VH: EVQLVESGPGLVRPSQTLSIKCSVSGGSINRGAYFWTWIRQRPGKGLEWIGSIHDTGSYYNPSLKTRVSISGDTSKNLFTLELTSLTAADTAVYYCARGRGYSYGWRYFDSWGQGTLVTVSS
VL: SYVLTQPPSVSVSPGQTARITCSGDAFPRQYSYWYQQKAGQPPVLVILKDSERPSGIPARFSGSTSGTTVTLTITGVQAEDEADYYCQSSDSSGNYVVFGGGTKLTVL
notes: IgG; also called Antibody Number 86
B15: ADI-14531 (antibody, V domains shown)
VH: QVQLVQSGAEVKKPGSSVKVSCKASGVILTSVAVSWVRQAPGKGFEWMGGILPGFNKVRHAQDFENRATHTADASTNTVYMELSGLKSEDTAVYYCAIIDPQDCTRASCFWVNWLAPWGQGTLVTVSS
VL: ETTLTQSPGTLTLSPGERATLSCRASQSVPSRNLAWYQQKPGQAPRLIIYAASNRATDIPDRFSGSGSGTDFTLTISRLEPQDFAVYYCQQYETSPITFGQGTKVDIK
notes: IgG; also called Antibody Number 91
B16: ADI-14527 (antibody, V domains shown)
VH: QVQLVQSGAELKRPGSSVKVSCKASGVYLTSVAVNWVRQVPGHGFEWMGGILTGFGKVRHAQAFENRATLTADASTNTAYLELSGLQAEDTAAYYCAIIDPQDCTAASCFWVNWLDPWGQGTLVTVSS
VL: EIVLTQSPGTLTVSPGERATLSCRASQSVLSSHLAWYQQKPGQAPRLLIYAASSRATDVPDRFSGSGSGTDFTLTISRLEPQDFAVYYCQQYGSSPITFGQGTRLEIK
notes: IgG; also called Antibody Number 87
B17: ADI-14528 (antibody, V domains shown)
VH: QVQLVQSGAEVKKPGSSVKVSCKVAGGSFSNYAIAWLRQAPGQGLEWMGGIIPAFNRAMYARKFQDRVTITAYASTTTAYLDITGLRSEDTALYYCARPAGDFGDLKWVRSPFDYWGQGTLVTVSS
VL: B3 VL with A9G, V19A, D28E, S30G, D70E, F85V, E107D
notes: IgG; also called Antibody Number 88
B18: ADI-14563 (antibody, V domains shown)
VH: QVQLVQSGGGLAQPGGSLRLSCAASGFIFSVYEMDWVRQAPGKGLEWLSYIDITGNSVTYADSVRGRFTISRDNARNSLYLQMDSLRVEDTAVYYCVRDSRGPTTQWLTGYFDFWGQGTTVTVSS
VL: DIRMTQSPATLSLSPGERATLSCRASQSVSNYLAWYQQKPGQAPRLLIYDVSNRATGIPARFSGSGSGTDFTLTISSLEPEDFAVYYCQQRRNWPPLTFGGGTKVEVK

target: T1, RSV F ectodomain stabilized in the postfusion conformation (F ΔFP), subtype B (Respiratory syncytial virus subtype B, UniProt P13843 26-109; P13843 147-524); assay: BLI, IgG on AHQ sensors, 100 nM antigen
T1 construct: extracellular domain; trimer; also called Postfusion subtype B

| Binder | Kd |
| --- | --- |
| B1 | 0.195 nM |
| B2 | 0.382 nM |
| B3 | 37.6 nM |
| B4 | 0.798 nM |
| B5 | 0.136 nM |
| B6 | 0.142 nM |
| B7 | 0.93 nM |
| B8 | 0.154 nM |
| B9 | 0.269 nM |
| B10 | 0.238 nM |
| B11 | 0.472 nM |
| B12 | 5.71 nM |
| B13 | 2.49 nM |
| B14 | 0.342 nM |
| B15 | 23.8 nM |
| B16 | 0.645 nM |

target: T2, RSV F ectodomain stabilized in the postfusion conformation (F ΔFP), subtype A (Respiratory syncytial virus subtype A, UniProt P03420 26-109; P03420 147-524); assay: BLI, IgG on AHQ sensors, 100 nM antigen
T2 construct: extracellular domain; trimer; also called Postfusion subtype A; Postfusion RSV F

| Binder | Kd |
| --- | --- |
| B1 | 0.207 nM |
| B2 | 0.404 nM |
| B17 | 35.2 nM |
| B3 | 47.2 nM |
| B4 | 1.71 nM |
| B5 | 0.224 nM |
| B6 | 0.211 nM |
| B7 | 1 nM |
| B8 | 0.35 nM |
| B9 | 0.169 nM |
| B10 | 0.23 nM |
| B11 | 0.589 nM |
| B12 | 0.738 nM |
| B13 | 0.326 nM |
| B14 | 0.346 nM |
| B15 | 12.6 nM |
| B16 | 0.889 nM |

target: RSV F protein of subtype B (18537) on recombinant mKate-RSV (Respiratory syncytial virus subtype B …, UniProt P13843 26-574); assay: cell-based or functional assay

| Binder | Neut IC50 (µg/ml) subtype B |
| --- | --- |
| B18 | > 10 µg/mL |
| B2 | 0.696 µg/mL |
| B17 | 0.705 µg/mL |
| B3 | > 10 µg/mL |
| B4 | 0.991 µg/mL |
| B5 | 0.208 µg/mL |
| B6 | 0.292 µg/mL |
| B7 | > 10 µg/mL |
| B8 | > 10 µg/mL |
| B9 | 0.252 µg/mL |
| B10 | > 10 µg/mL |
| B11 | > 10 µg/mL |
| B12 | 0.302 µg/mL |
| B13 | > 10 µg/mL |
| B14 | 9.67 µg/mL |
| B15 | > 10 µg/mL |
| B16 | > 10 µg/mL |

target: RSV F protein of subtype A (strain A2) on recombinant mKate-RSV (Respiratory syncytial virus subtype A …, UniProt P03420 26-574); assay: cell-based or functional assay

| Binder | Neut IC50 (µg/ml) subtype A |
| --- | --- |
| B18 | > 10 µg/mL |
| B2 | 0.56 µg/mL |
| B17 | > 10 µg/mL |
| B3 | > 10 µg/mL |
| B4 | 2.38 µg/mL |
| B5 | 0.168 µg/mL |
| B6 | 0.272 µg/mL |
| B7 | > 10 µg/mL |
| B8 | > 10 µg/mL |
| B9 | 0.198 µg/mL |
| B10 | > 10 µg/mL |
| B11 | > 10 µg/mL |
| B12 | 0.727 µg/mL |
| B13 | > 10 µg/mL |
| B14 | 2.36 µg/mL |
| B15 | > 10 µg/mL |
| B16 | > 10 µg/mL |

Source: patent publication US20250313612A1 (Adimab, published 2025)
